Assay: soluble on expression in E. coli; label from the status in PepcDB or PDB records
With “MAVKISGVLKDGAGKPVVNCAIELRARRTSPTVVAHVVATCVTDNNGAYVIEAEPGYYEVALHCNGWQPTRVGDIDVAPTDAPGTLNAFLNAPKDGDLRPEVMKRFEEMVAQAQQSAGAAAGNAQQTAQDVAAAATARDDAQRFAEKARQDATVTAEDRKATAEDVTSTGANAAAAGQSAQDAAGYARAAEQAKNDIDAALTGTLKMANHLSEIAAAGEKAQQKSRDNLGLKSAATMEAQSDIYDRTKGRLAIPGAFGFGCAFLPEDVIRFDTKSDFLAWVRNALPGEYSVAGPYGIIIPDTRFEGVLSIRWTDARPETTEPRYRAKSLTFYGINGPIYHTRYRYWPISRLTG” the “soluble on expression in E. coli” value was “not soluble”.
In the case of “SAMKPTAGPTTNADLTSAPPHDIFISHAWEDKADFVEALAHTLRAAGAEVWYDDFSLRPGDSLRRSIDKGLGSSRFGIVVLSTHFFKKEWPQKELDGLFQLESSGRSRILPIWHKVSKDEVASFSPTMADKLAFNTSTKSVDEIVADLMAIIRD”, the “soluble on expression in E. coli” value was “soluble”.
With “MKKPVIGITGNEKTHPDDDIMMSYAAKGFVEGVKDAGGIPIILPIGDQEMACHYISLIDKLILTGGQNVDPKFYGEPKTIDSDDYHLQRDIFELALIKEAIKQKKPIFSVCRGTQLFNVAMGGTLYQDIEDHWQDSSVEYTTQRLVTEPDTVLQEIYGEISHINSFHHQSIKDLAPNLKVVAHDPKDGIIEAVMSTDDVAFLGVQWHPELLFENRPKDKKLFDYVVNEL” the “soluble on expression in E. coli” value was “not soluble”.
In the case of “AGKTLYDKLWEAHEVKRRDDGSSLIYIDRHIIHEVTSPQAFEGLRLANRKPWRIDANIATPDHNVPTTPERKGGIEAIVDQVSRLQVQTLDENCDEYGIVEFKMNDERQGIVHVISPEQGATLPGMTVVCGDSHTSTHGAFGALAHGIGTSEVEHVLATQCLVAKKMKN”, the “soluble on expression in E. coli” value was “not soluble”.
With “MSSECDGGSKAVMNGLAPGSNGQDKDMDPTKICTGKGAVTLRASSSYRETPSSSPASPQETRQHESKPGLEPEPSSADEWRLSSSADANGNAQPSSLAAKGYRSVHPNLPSDKSQDSSPLLNEVSSSLIGTDSQAFPSVSKPSSAYPSTTIVNPTIVLLQHNREQQKRLSSLSDPVSERRVGEQDSAPTQEKPTSPGKAIEKRAKDDSRRVVKSTQDLSDVSMDEVGIPLRNTERSKDWYKTMFKQIHKLNRDDDSDLYSPRYSFSEDTKSPLSVPRSKSEMSYIDGEKVVKRSATLPLPARSSSLKSSSERNDWEPPDKKVDTRKYRAEPKSIYEYQPGKSSVLTNEKMSRDISPEEIDLKNEPWYKFFSELEFGKPTNLDKDLSLCQTELEADLEKMETLNKAPSANVPQSSAISPTPEISSETPGYIYSSNFHAVKRESDGAPGDLTSLENERQIYKSVLEGGDIPLQGLSGLKRPSSSASTKVHSRTFNTSNALGPVCKHKKPLSAAKACISEILPSKFKPRLSAPSALLQEQKSILLPSEKAQSCENLCVSGSLNDSKRGLPLQVGGSIENLLMRSRRDYDSKSSSTMSLQEYSTSGRRPCPLSRKAGMQFTMLYRDMHQINRSGLFLGSISSSSSVRDLASHFEKSSLALSRGELGPSQEGSEHIPKHTVSSRITAFEQLIQRSRSMPSLDLSGRLSKSPTPVLSRGSLTSARSAESLLESTKLHPKEMDGMNSSGVYASPTCSNMAHHALSFRGLVPSEPLSTCSDDVDRCSNISTDSREGSGGSVHGDFPKHRLNKCKGTCPASYTRFTTIRKHEQQQTSRQPEWRLDARGDKSTLLRNIYLMSPLPFRLKKPLHHHPRQPSPGDSSGLLVGQKPDLPSQPHQDQPPSGGKPVVPTRLSSRHTMARLSRSSEPSQERPTALEDYPRAINNGNSVPYSDHSLDRNNNPQSELAPSRGDSESPRHFIPADYLESTEEFIRRRHDDKEMRPARAKFDFKAQTLKELPLQKGDIVYIYKQIDQNWYEGEHHGRVGIFPRTYIELLPPAEKAQPKKLTPVQVLEYGEAIAKFNFNGDTQVEMSFRKGERITLLRQVDENWYEGRIPGTSRQGIFPITYVDVIKRPLVKNPVDYMDLPFSSSPSRSATASPQQPQAQQRRVTPDRSQTSQDLFSYQALYSYIPQNDDELELRDGDIVDVMEKCDDGWFVGTSRRTKQFGTFPGNYVKPLYL” the “soluble on expression in E. coli” value was “soluble”.
For “MPLTNNSTTKPQEIAAIDLGSNSFHMVIARVVNGALQVLGRLKQRVHLADGLDSNNMLSEEAIERGLACLALFAERLQGFSPDNVCIVGTHTLRQAANAETFLKRAAEVIPYPIEIISGQEEARLIFMGVEHTQPEKGRKLVIDIGGGSTEMVIGEDFEPLLVESRRMGCVSFAQQFFPGGEISKNNFRRARLAAAQKLENLAWQYRIQGWQYALGASGTIKATYEVLVEMGEKDGLITPERLEMLVENVLQFKQFSALSLPGLSEDRQSVFVPGLAILCGVFDALAIKTLRLSDGALREGVLYEMEGRFRHQDIRQRTAKSLADHYNIDREQARRVLETTEQLYTQWLAQNTKLVQPQLEALLKWAAMLHEVGLSINHSGMHRHSAYILQNTNLPGFNQEQQTLLATLVRMHRKAIKLDELPRLNLFKKKYYLPLIQLLRLSTLLNNQRQSTTTPESLRLITDDSHWTLRFPHGYLTQNSLVQLDFEREQAYWDDVVGWKLVIEEEEPDEAAKVAPEE”, the “soluble on expression in E. coli” value was “soluble”.
In the case of “GAMAFDWDAYLEETGSEAAPAKCFKQAQNPPNNDFKIGMKLEALDPRNVTSTCIATVVGVLGSRLRLRLDGSDSQNDFWRLVDSTEIHAIGHCEKNGGMLQPPLGFCMNASSWPGYLCKILNNAMVAPEEIFQPEPPEPEENLFKVGQKLEAVDKKNPQLICCATVDAIKDDQIHVTFDGWRGAFDYWCNYRSRDIFPAGWCARSCHPMQPPGHKSRMDSSSSKQRCPRPRYTVVAESEAMVPASPATAHFHPNCKGGPFINNSK”, the “soluble on expression in E. coli” value was “soluble”.
For “GSSMKASSGDQGSPPCFLRFPRPVRVVSGAEAELKCVVLGEPPPVVVWEKGGQQLAASERLSFPADGAEHGLLLTAALPTDAGVYVCRARNAAGEAYAAAAVTVLEPPA”, the “soluble on expression in E. coli” value was “soluble”.
For “MSLSATSNSNWDRRSVLRAAAGLAALGPLAACGSNTGRSGGGSSGESLVQYFHAYGEAGTEQAIRRYAKAYDKAAVTTQWITGTNFESKLFSALLTDNAPDVFEFHPQLQMIKSGQVAALDDIIDPVKDDFNPADITSHTVDGKVYGVRMIDDPQFFFYRKSLLEKAGTGVPQTLDELAEAAAKLTTDKVKGLFLGNNMVAPNYALVWAAGADQLNAKNEIAYHTDEVAAALKVYRKMFTSGHLLLDAPADYWDPSALVQGLTAIQWCGMWAMPVMQQALGDDLGIFPFPSAASGAKPAVYNGGWSMFVNAKGKNVDLAKEYVKWLWIDQKKYQEDWALSYGFHIPPRTSTAESATKLKSGLPAEGVKLFTDYGRFDNVSWTQAMISALEGVIADAVRKGKDPEAALDTADKKVNRELKNLFGEGHHHHHH”, the “soluble on expression in E. coli” value was “soluble”.
In the case of “MTSLVAYGSDSEGEDDDFFGKPTTEKEETTKNAEKEKEEESEKIAESDEKPTISSFFFSGDDDKAGSSDSDDSEGESVGPKKKRRSGESVTELDKEFTSSIFDNDYAREERMNARMLSRHVDLSDKPSEKERKKSKFTCKNYLKGKCRFGDKCRFSHPVHNRSSDAVNEVSISSEAKFYTTETPEAQVFHSKKFKSSAGQ”, the “soluble on expression in E. coli” value was “not soluble”.
In the case of “MGDQLDAVEVQAISPDGEITVKLGTGDAVDVQFKSDEYFKSVPHETLSHQLGRALTLLAVGRIRKRHQILEAEGFEVYGEDDAHWDKRVRVFREKRAQVKAAGRSPKRHIAIATVGLRDFKVRFERDVTRRLSRSEFSGEFGGAVAAVISEYSAQMTQLKTAMFT”, the “soluble on expression in E. coli” value was “not soluble”.
In the case of “MGSDKIHHHHHHMANFSYEVFSKVVERGTLAKAAAELNVTPSAVSHSVSQLETELGFPLLIRNRTGVALTEDGAQVLPIIQSIQNLEEQLTQVADNINGVNTGRIRIGAFSSVSTNWLPTIIRRFKKRYPHIEISVVQGTFNRIVEAVRLGTADIGFSSLPVGPGVVVEPLLKDPIYCITAKQFKPKNGRTVTQADVDKQNFILQQIDYDRDTKNALDRYHVSSNAINYSIDDQSILSMVESGLGMGILPKLAVQKLVGDVNMYPFSEPFERTLCLVINPTIKKSPSVQRMQQVIHSFLAETYGEAFLGHQG”, the “soluble on expression in E. coli” value was “not soluble”.
For “APTMTEFVGTAGGDTVGLVIANVDSLLHKHLGLDNTCRSIGIISARVGAPAQMMAADEAVKGTNTEVATIELPRDTKGGAGHGIFIVLKAADVSDARRAVEIALKQTDKYLGNVYLCDAGHLEVQYTARASLIFEKAFGAPSGQAFGIMHAAPAGVGMIVADTALKTADVKLITYGSPTNGVLSYTNEILITISGDSGAVLQSLTAARKAGLSILRSMGQDPVSMSKPTF”, the “soluble on expression in E. coli” value was “soluble”.
In the case of “MDSDHNHINGDLAHGFENMVCVRCNDGFSMQDQMVNSSGQVWHSECFVCAQCFEPFPDGIYFEYEGRKYCEHDFHVLFSPCCGKCNEFIVGRVIKAMNASWHPGCFCCEICNKQLADVGFLRNAGRALCRECNEREKAAGHGRYVCHKCHAMIDDGQHIKFRGDSFHPYHFKCKRCNNELTTASREVNGELYCLRCHDTMGIPICGACHRPIEERVIAALGKHWHVEHFVCSVCEKPFLGHRHYERKGLPYCEQHFHKLFGNLCFKCGDPCCGEVFQALQKTWCVKCFSCSFCDKKLDQKTKFYEFDMKPTCKRCYDRFPTELKKRISESLKDRDVENQRRSMSPGPK”, the “soluble on expression in E. coli” value was “not soluble”.
With “MKKLLFFILILFGVLSVQSLANGCSAQICTCPGGGYVTTGQYCPVYNNNTPSQPVLTKWYAFSYDKNKNIYGVGTGYDKKTAQNEALKNCGTSECKIEKSQKIPGGISLAAVSSNGVMVTYSSFGSSTWEQYEKRIDNLIKKCKAKGGSNCKLVFDSAYLYRKDKNLGY” the “soluble on expression in E. coli” value was “not soluble”.
In the case of “MSLEKYNAEVERDPFANRVFEQEEKRELTSEQRIAYENIKEKINNSEQRTFLLHGVTGSGKTEVYLQTIEEVLNKGKEAMMLVPEIALTPQMVLRFKRRFGDDVAVLHSGLSNGERYDEWQKIRDGRARVSVGARSSIFAPFKNLGIIIIDEEHESTYKQEDYPRYHARDIAEWRSQFHQCPLVLGSATPSLESYARTEKGVYQLLTLPTRVNQQALPSIDIVDMREELSAGNRSMFSNELREAIEDRLRKNEQIVLFLNRRGYASFMLCRDCGYVPQCPHCDISLTYHKSTDQLKCHYCGYHEVPPNKCPNCESSHIRQVGTGTQRVEEILQQEFEEARIIRMDVDTTSRKGAHEKLLNEFEEGKGDILLGTQMIAKGLDYPNITLVGVLNADTMLNLPDFRASERTYQLLTQVAGRAGRHDKPGRVIIQTYNPEHYAIQDVQKNDYLTFYQKEMEYRKIGKYPPYYFLINFTISHKNMKKVMEASKHIHQILLQHLTDRALVLGPSPAAIARINNEHRFQILVKYKSEPELLKALQYLDDYYHEAYLKNKLALKIDINPQILMEGHHHHHH”, the “soluble on expression in E. coli” value was “soluble”.
With “MGSDKIHHHHHHMHQFLRAIGFSDITKKQLNEVINNIIDKPEKLKVTKDFEGNEFAELSCDVAPNMGITVRGIYNDDDSFDIDYYYPYFTGSEKTTNEIIDIEKHSEKESYAGVCDDPNLGVTLIFYLQNVCDYLSEKAYINREVRAKGAVLSGLSVDGCILLPMKQKKAKTLNTVDSDKKDRKQLIAEARDGDESAMESLTMEDIDLYSSITRRIQNEDILSIVTTYFMPYGIESDQYSVLGDIIELTEEKNIITNEKIYCIKVSCNDIIFSVCINKNDLIGEPMVGRRFKGNIWMQGSICL” the “soluble on expression in E. coli” value was “not soluble”.
With “MAPQSNNSTTFVSKTQHYLKVKKPLLERQRRARMNKCLDTLKTLVAEFQGDDAILRMDKAEMLEAALVFMRKQVVKQQAPVSPLPMDSFKNGYMNAVSEISRVMACTPAMSVDVGKTVMTHLGVEFQRMLQADQVQTSVTTSTPRPLSPASSGYHSDNEDSQSAASPKPVEETMWRPWLEHHHHHH” the “soluble on expression in E. coli” value was “not soluble”.
For “MSLVRIKDIALKAKVSSATVSRILNEDESLSVAGETRQRVINIAEELGYQTVAKRRKSRGQKQRAQPLIGVLSCLSPDQERQDPYFSSIRKGIEKECFEQEIFITNSIHLGSFQEHIFRELDGVIVIGRVHDEAVKHISGRLEHAVFINHSPDPQAYDSIGIDFESASRQAIDHLFDLGYKRLGYIGGQEKEHTLKDGQSIRRTIEDKRLTAFLESAAPQPEHVLIGEYSMREGYRLMKKAIDQGHLPEAFFIASDSMAIGALKALQEAGLQVPRDTAIVSFNGIEEAEFASTPLTTVKVYTEEMGRTGVKLLLDRLNGRTLPQHVTLPTTLIVRQSCGCTAKEGHHHHHH”, the “soluble on expression in E. coli” value was “soluble”.

From the DeepSol protein solubility set
